According to patent US9012606B2, “In vivo half life increased fusion protein or peptide maintained by sustained in vivo release, and method for increasng in vivo half-life using same” (Alteogen, Inc., priority 2009, dated 2015):
Where a chain is given by its changes, count along the chain named. In names and notes the source's numbering stands.

Columns and labels:
[1] = Weweres et al. 1987; cited from earlier work
[2] = In vivo activity: body weight change in pituitary gland-removed rats; set-up: species or system Sprague-Dawley rats; settings: subcutaneous 5 μg per rat every day (Eutropin), day 7
Description: Pituitary gland-removed Sprague-Dawley rats were used as experimental animals and divided into three groups of seven. To the hypophysectomyzed Sprague-Dawley rats, the human growth hormone/alpha-1 antitrypsin monovariant fusion [T109: α1AT(P357N)/hGH] prepared in Example 2 and human growth hormone (Eutropin, LG Life Sciences Ltd, Korea) were subcutaneously injected at doses of 18 μg and 5 μg per rat, respectively, every day. For a control, PBS was used. The rats were weighed every day after being injected.

[3] = Pharmacokinetics of hGH and hGH/alpha-1 antitrypsin fusions (serum ELISA); format: in vivo; settings: Sprague-Dawley rats, subcutaneous, 200 μg/kg (Scitropin control)
Description: An anti-human growth hormone monoclonal antibody (Medix Biochemica, Finland) was diluted to a concentration of 1-5 μg/mL in phosphate buffered saline (PBS) and the dilution was aliquoted in an amount of 100 μL/well onto a 96-well plate (Nunc, Denmark) and incubated at room temperature for 15-18 hrs. After the antibody remaining suspended was removed, PBS containing 1% bovine serum albumin was plated in an amount of 250 μL/well and incubated at room temperature for 2 hours. The plates were washed three times with wash buffer (0.05% Tween 20, PBS) and the solution was aspirated. Samples were diluted in PBS containing 1% bovine serum albumin and added to the 96-well plates before incubation at room temperature for 2 hrs. The 96-well plates were washed five times with wash buffer and 100 μL of the human growth hormone monoclonal antibody-biotin conjugate prepared using sulfo-NHS-biotin (Pierce biotechnology, U.S.A.) was added to each well of the 96-well plates and then incubated at room temperature for 2 hrs. The plates were washed five times with wash buffer and incubated with streptabidin-HRP at room temperature for 30 min. Again, the plates were washed five times with wash buffer and reacted with 100 μL of a mixture of TMB (3,3′,5,5′-tetramethylbenzidine) and hydrogen peroxide per well for 30 min in a dark place. To each well was added 100 μL of 1 M sulfuric acid to terminate the reaction, followed by measuring absorbance at 450 nm on a VersaMax microplate reader (Molecular Device, U.S.A.). Values for each sample were calculated by regression analysis after a standard curve was plotted for a reference material.
Sprague-Dawley rats were used as experimental animals and three of them were administered with human growth hormone while five rats were assigned to each of the fusion-administered groups. The human growth hormone/alpha-1 antitrypsin fusion [T109wt: α1AT/hGH], the human growth hormone/alpha-1 antitrypsin monovariant fusion [T109: α1AT(P357N)/hGH], and the human growth hormone/alpha-1 antitrypsin divariant fusion [T109T: α1AT(P357N, S359T)/hGH], all prepared in Examples 1-3, were subcutaneously injected at a dose of 720 μg/kg into respective groups of Sprague-Dawley rats. The samples were diluted in PBS before injection. Blood samples were taken at 0, 1, 2, 4, 8, 12, 16, 24, 30 and 48 hrs after the injection, and centrifuged to obtain sera. For a control, Scitropin (SciGen, Singapore), a kind of human growth hormone, was subcutaneously injected at a dose of 200 μg/kg. PBS was used as a diluent. Blood samples were taken at 0, 0.33, 1, 2, 5, 8, 12, 18, 24, 30 and 48 hrs after the injection, and centrifuged to obtain sera. Each sample was analyzed in the same manner as the enzyme immunoassay of Test Example 1.

[4] = Pharmacokinetics of IFN-α and IFN-α/alpha-1 antitrypsin monovariant fusion (serum ELISA); format: in vivo; settings: Sprague-Dawley rats, subcutaneous, 60 μg/kg (Intermax alpha control)
Description: The enzyme immunoassay of human interferon alpha (IFN-α) and human interferon alpha/alpha-1 antitrypsin monovariant fusion was conducted with Human IFN-α Matched Antibody Pairs for ELISA (bender Medsystems, Austria). The IFN-α antibody (10 μg/ml) was allowed to adhere to 96-well plates and blocked as described in Test Example 1-1. A dilution of the sample was reacted with the antibody at room temperature for 2 hrs with shaking. An anti-IFN-α-HRP conjugate was plated in an amount of 50 μL/well and reacted with the antibody at room temperature for 2 hrs with shaking. Subsequent processes were conducted in the same manner as in Test Example 1-1.
Sprague-Dawley rats were used as experimental animals and five rats were assigned to each test group. The human interferon alpha/alpha-1 antitrypsin monovariant fusion [T502: α1AT(P357N)/IFN-α] prepared in Example 4 was subcutaneously injected at a dose of 200 μg/kg into Sprague-Dawley rats of one test group, 0, 0.33, 1, 2, 5, 8, 12, 18, 24, 30, 48, 72 and 96 hrs after which blood samples were taken, and centrifuged to obtain sera. […] Each sample was analyzed in the same manner as the enzyme immunoassay of Test Example 1.

[5] = Pharmacokinetics of G-CSF and G-CSF/alpha-1 antitrypsin variant fusions (serum ELISA); format: in vivo; settings: Sprague-Dawley rats, subcutaneous
Description: The same procedure as in Test Example 1 was repeated with the exception that an anti-granulocyte colony-stimulating factor (G-CSF) monoclonal antibody (RND systems, U.S.A.), instead of the anti-human growth hormone antibody, was diluted to a concentration of 1-5 μg/mL and granulocyte colony-stimulating factor polyclonal antibodies-biotin conjugate (RND systems, U.S.A.), instead of the human growth hormone monoclonal antibody-biotin conjugate, was used.
Sprague-Dawley rats were used as experimental animals and three of them were administered with granulocyte colony-stimulating factor while five rats were assigned to each of the fusion-administered groups. The granulocyte colony-stimulating factor/alpha-1 antitrypsin divariant fusion [T602S: α1AT(P357N, C232S)/G-CSF], and granulocyte colony-stimulating factor/alpha-1 antitrypsin trivariant fusion [T602ST: α1AT(P357N, C232S, S359T)/G-CSF], all prepared in Examples 5-6, were subcutaneously injected at a dose of 340 μg/kg into respective groups of Sprague-Dawley rats. Blood samples were taken at 0, 1, 2, 4, 8, 12, 16, 24, 30, and 48 hrs after the injection, and centrifuged to obtain sera. For a control, Filgrastim (Gracin, Jeil Pharmaceutical Co. Ltd. Korea), a commercially available granulocyte colony-stimulating factor, was subcutaneously injected at a dose of 100 μg/kg. Blood samples were taken at 0, 1, 2, 4, 8, 12, 18, 24, 30 and 48 hrs after the injection, and centrifuged to obtain sera. Each sample was analyzed in the same manner as the enzyme immunoassay of Test Example 1.

leucocytes = assay: In vivo activity: changes in leucocyte level; settings: Sprague-Dawley rats
Description: Sprague-Dawley rats were used as experimental animals and divided into five groups of five each. To the Sprague-Dawley rats, the granulocyte colony-stimulating factor/alpha-1 antitrypsin divariant fusion [T602S: α1AT(P357N, C232S)/G-CSF] prepared in Example 5 was subcutaneously injected at doses of 340 μg/kg and 1,700 μg/kg. To another groups of rats, the granulocyte colony-stimulating factor/alpha-1 antitrypsin trivariant fusion [T602ST: α1AT(P357N, C232S, S359T)/G-CSF] prepared in Example 6 and the granulocyte colony-stimulating factor Filgrastim (Gracin, Jell Pharmaceutical Co. Ltd. Korea) were subcutaneously injected at doses of 1,700 μg/kg and 100 μg/kg, respectively. Blood samples were taken from the tail on 3 days before experiment and on 1, 2, 3, 4 and 5 days after the injection and leucocytes were counted using Hematology Analyzer (Pentra 120).

[6] = tested on: Murine myeloblastic NFS-60 cells; assay: In vitro activity in NFS-60 cells (MTS method); format: cell-based
Description: The rat lymphoma cell line (NB2 cell) was maintained in RPMI1640 supplemented with 10% HS (Horse serum), 10% FBS, 2-mercaptoethanol and antibiotics at 37° C. under a 5% CO2 condition. For 24 hrs before experiment, NB2 cells were incubated in RPMI 1640 supplemented with 10% HS. Thereafter, the NB2 cells were washed once with 1×DPBS (Dulbecco's Phosphate Buffered Saline), and plated at a density of 2×10^4 cells/100 μL/well in 5% HS-supplemented RPMI 1640 in 96-well plates (Corning, U.S.A.) with final volume of 100 μL. A series of concentrations of the samples were added in an amount of 20 μL to each well of the 96-well plates, followed by incubation at 37° C. for 48 hrs under a 5% CO2 condition. Subsequently, 20 μL of an MTS solution (Promega, U.S.A.) was added to each well of the 96-well plates and allowed to react at 37° C. for 3 hrs under a 5% CO2 condition. The reaction was terminated by adding 20 μL of 10% SDS (sodium dodecyl sulfate) to each well. Absorbance was measured at 490 nm using a VersaMax microplate reader (Molecular Device, U.S.A.).
Murine myeloblastic NFS-60 cells were incubated in RPMI 1640 supplemented with 10% FBS, mouse IL-3 and antibiotics at 37° C. under a 5% CO2 condition. The absorbance of the cells was measured at 490 nm in the same manner as in Test Example 4-1.

## alpha-1 antitrypsin
[1]
  in vivo half-life: 120 to 140 h

## human growth hormone [reference compound]
[2]
  weight gain: about 10.2%
[3]
  Tmax: 1 h
  serum half-life (t1/2): 0.8 h

## human interferon alpha [reference compound]
[4]
  Tmax: 1.4 h
  serum half-life (t1/2): 3.4 h

B1: granulocyte colony-stimulating factor/alpha-1 antitrypsin divariant fusion (protein)
chain: EDPQGDAAQKTDTSHHDQDHPTFNKITPNLAEFAFSLYRQLAHQSNSTNIFFSPVSIATAFAMLSLGTKADTHDEILEGLNFNLTEIPEAQIHEGFQELLRTLNQPDSQLQLTTGNGLFLSEGLKLVDKFLEDVKKLYHSEAFTVNFGDTEEAKKQINDYVEKGTQGKIVDLVKELDRDTVFALVNYIFFKGKWERPFEVKDTEEEDFHVDQVTTVKVPMMKRLGMFNIQHSKKLSSWVLLMKYLGNATAIFFLPDEGKLQHLENELTHDIITKFLENEDRRSASLHLPKLSITGTYDLKSVLGQLGITKVFSNGADLSGVTEEAPLKLSKAVHKAVLTIDEKGTEAAGAMFLEAINMSIPPEVKFNKPFVFLMIDQNTKSPLFMGKVVNPTQKGGGGSTPLGPASSLPQSFLLKCLEQVRKIQGDGAALQEKLCATYKLCHPEELVLLGHSLGIPWAPLSSCPSQALQLAGCLSQLHSGLFLYQGLLQALEGISPELGPTLDTLQLDVADFATTIWQQMEELGMAPALQPTQGAMPAFASAFQRRAGGVLVASHLQSFLEVSYRVLRHLAQP
modifications: T602S [alpha-1AT(P357N, C232S)/G-CSF]
notes: G-CSF fused to C-terminus of alpha-1 antitrypsin divariant 2 P357N, C232S
[5]; 340 μg/kg
  Tmax: 13.6 h
  serum half-life (t1/2): 5.1 h
leucocytes; subcutaneous, 340 μg/kg
  leucocyte count time course: peak level on Day 2 and then decrease from Day 3
leucocytes; subcutaneous, 1,700 μg/kg
  leucocyte count time course: remained high until Day 3 and started to decrease on Day 4
[6]
  EC50: 78.1 pM

B2: granulocyte colony-stimulating factor/alpha-1 antitrypsin trivariant fusion (protein)
chain: B1 chain with S359T
modifications: T602ST [alpha-1AT(P357N, C232S, S359T)/G-CSF]
notes: G-CSF fused to C-terminus of alpha-1 antitrypsin trivariant P357N, C232S, S359T
[5]; 340 μg/kg
  Tmax: 16 h
  serum half-life (t1/2): 4.5 h
leucocytes; subcutaneous, 1,700 μg/kg
  leucocyte count time course: remained high until Day 3 and started to decrease on Day 4
[6]
  EC50: 97.6 pM

B3: Filgrastim (protein, chains of the INN, looked up)
chain: MTPLGPASSLPQSFLLKCLEQVRKIQGDGAALQEKLCATYKLCHPEELVLLGHSLGIPWAPLSSCPSQALQLAGCLSQLHSGLFLYQGLLQALEGISPELGPTLDTLQLDVADFATTIWQQMEELGMAPALQPTQGAMPAFASAFQRRAGGVLVASHLQSFLEVSYRVLRHLAQP
notes: Filgrastim (Gracin, Jeil Pharmaceutical), a commercially available granulocyte colony-stimulating factor
[5]; 100 μg/kg (Filgrastim control)
  Tmax: 1.8 h
  serum half-life (t1/2): 1.8 h
leucocytes; subcutaneous, 100 μg/kg
  leucocyte count time course: peak level at Day 1 and then decrease to the base line from Day 2
